Values quoted from earlier work, collected in US20130064803A1, “BIO-REPLENISHMENT (BioRep) FOR COGNITIVE HEALTH” (Naidu LP, priority 2011, published 2013).

Conditions: intravenous infusion

B1: LF: 80-kD heparan- and metal-binding glycoprotein, member of the transferrin super-family (protein, UniProt P02788 20-710, looked up)
Lactotransferrin: GRRRSVQWCAVSQPEATKCFQWQRNMRKVRGPPVSCIKRDSPIQCIQAIAENRADAVTLDGGFIYEAGLAPYKLRPVAAEVYGTERQPRTHYYAVAVVKKGGSFQLNELQGLKSCHTGLRRTAGWNVPIGTLRPFLNWTGPPEPIEAAVARFFSASCVPGADKGQFPNLCRLCAGTGENKCAFSSQEPYFSYSGAFKCLRDGAGDVAFIRESTVFEDLSDEAERDEYELLCPDNTRKPVDKFKDCHLARVPSHAVVARSVNGKEDAIWNLLRQAQEKFGKDKSPKFQLFGSPSGQKDLLFKDSAIGFSRVPPRIDSGLYLGSGYFTAIQNLRKSEEEVAARRARVVWCAVGEQELRKCNQWSGLSEGSVTCSSASTTEDCIALVLKGEADAMSLDGGYVYTAGKCGLVPVLAENYKSQQSSDPDPNCVDRPVEGYLAVAVVRRSDTSLTWNSVKGKKSCHTAVDRTAGWNIPMGLLFNQTGSCKFDEYFSQSCAPGSDPRSNLCALCIGDEQGENKCVPNSNERYYGYTGAFRCLAENAGDVAFVKDVTVLQNTDGNNNEAWAKDLKLADFALLCLDGKRKPVTEARSCHLAMAPNHAVVSRMDKVERLKQVLLHQQAKFGRNGSDCPDKFCLFQSETKNLLFNDNTECLARLHGKTTYEKYLGPQYVAGITNLKKCSTSPLLEACEFLRK
time to reach the cerebrospinal fluid: ≤ 30 min
